Measurements taken from patent US20040086947A1.
No end group written: not given here.

Assays:
[1] = substrate: FPB antiserum (rabbit polyclonal antiserum to human fibrinopeptide B, R4097, bleed I3); experiment: competitive ELISA; synthetic FPB in solution against FPB antiserum binding to FPB-coated wells
[2] = substrate: FPB antiserum (rabbit polyclonal antiserum to human fibrinopeptide B, R4097, bleed I3); experiment: competitive ELISA; reference synthetic FPB
[3] = substrate: FPB antiserum (rabbit polyclonal antiserum to human fibrinopeptide B, R4097, bleed I3); experiment: competitive ELISA; des-arg FPB in solution against FPB antiserum binding to FPB-coated wells

Row | IC50 [1] [nM] | cross-reactivity (IC50 of FPB divided by IC50 of des-arg FPB times 100) [2] [%] | IC50 [3] [nM] | Binder
1 | 6.7 | – | – | QGVNDNEEGFFSAR (also: N-terminal Gln or pyroglutamic acid not given here) [synthetic human fibrinopeptide B (FPB)]
2 | – | 75 | 8.9 | QGVNDNEEGFFSA (also: N-terminal Gln or pyroglutamic acid not given here) [synthetic des-arginine fibrinopeptide B (des-arg FPB)]
